One may read the stoichiometry N as a count of units in the complex or per binding partner. In general, Kd refers to the concentration at which binding is half-saturated. A low value points to a tighter complex.

Numbering of substitutions follows the chain as printed. In names and notes the source's numbering stands.

Data set [1] addresses wild-type manganese superoxide dismutase from Candida albicans cytosol (Candida albicans). In words: SEC; HPLC-SEC (TSK gel G2000SW), as-isolated proteins, 10 µM to 200 nM with respect to monomer, 10 mM potassium phosphate pH 6.7; Kd of the step dimer to monomers, from area integrals of the elution peaks.
Data set [2] has as its target K184R, L185P CaMnSODc (Candida albicans). Described as above.
For data set [3] the target is unchanged.
The target is the same in data set [4]. This is another data set of the same source.
Data set [5] has the same target. The source holds these as a separate data set.
Data set [6] has the same target. In words: crystal structure; hanging-drop vapor diffusion at 4°C, protein 7 mg/mL; methylated K182R, A183P ScMnSOD in 0.1 M tri-ammonium citrate pH 7, 20% PEG 3,350; unmodified K184R, L185P CaMnSODc in 2 M ammonium sulfate.
Data set [7] deals with the molecule itself. The data set is described as follows: SEC; HPLC-SEC (TSK gel G2000SW), as-isolated proteins, 10 µM to 200 nM with respect to monomer, 10 mM potassium phosphate pH 6.7; Kd of the step dimer to monomers, from area integrals of the elution peaks. On the technique in general: SEC sorts molecules by how far they enter the pores of the column.
Data set [8] concerns the molecule itself. The data set is described as follows: crystal structure; hanging-drop vapor diffusion at 4°C, protein 7 mg/mL; methylated K182R, A183P ScMnSOD in 0.1 M tri-ammonium citrate pH 7, 20% PEG 3,350; unmodified K184R, L185P CaMnSODc in 2 M ammonium sulfate.

Molecule “wild-type manganese superoxide dismutase from Candida albicans cytosol (enzyme)” showed a stoichiometry N in data set [1] of 2.
Take K184R, L185P CaMnSODc (enzyme): in data set [2], the equilibrium dissociation constant (Kd) amounted to 2000 nM and the stoichiometry N was 2. Further, the SOD activity (pulse radiolysis) after heating at 41°C (% activity lost) in data set [3] worked out at 70. This molecule also gave a pK (the pH at which the SOD activity drops by 50%), pulse radiolysis in data set [4] of 8 pH. In data set [5], this molecule had a rate constant of O2^- dismutation by pulse radiolysis at 1 µM to 2.2 µM enzyme of 9.9e+08 M⁻¹ s⁻¹. In data set [6], this molecule gave a stoichiometry N of 4.

B1: wild-type manganese superoxide dismutase from Saccharomyces cerevisiae mitochondria (enzyme, S. cerevisiae, UniProt P00447 27-233, looked up)
chain: KVTLPDLKWDFGALEPYISGQINELHYTKHHQTYVNGFNTAVDQFQELSDLLAKEPSPANARKMIAIQQNIKFHGGGFTNHCLFWENLAPESQGGGEPPTGALAKAIDEQFGSLDELIKLTNTKLAGVQGSGWAFIVKNLSNGGKLDVVQTYNQDTVTGPLVPLVAIDAWEHAYYLQYQNKKADYFKAIWNVVNWKEASRRFDAGKI
notes: Manganese superoxide dismutase of S. cerevisiae mitochondria (ScMnSOD), expressed from a 2-kb genomic BamHI fragment containing the gene; As isolated, 0.70 Mn per monomer; also called ScMnSOD; WT ScMnSOD; source: S. cerevisiae sod2Δ strain (EG110), overexpressed from YEp352-ScMnSOD, purified
For B1, the “stoichiometry N” value in data set [7] came to 4.

B2: K182R, A183P ScMnSOD (enzyme, S. cerevisiae, UniProt P00447 27-233, looked up)
chain: B1 chain with K182R, A183P
notes: Manganese superoxide dismutase of S. cerevisiae mitochondria (ScMnSOD) with K182R and A183P; Unmethylated form used for HPLC-SEC; as isolated, 0.71 Mn per monomer; also called RP-mutant ScMnSOD; as-isolated K182R, A183P ScMnSOD; source: S. cerevisiae sod2Δ strain (EG110), overexpressed from YEp352-ScMnSOD (mutant), purified
In the case of B2, in data set [7], the “stoichiometry N” value was found to be 4.

B3: methylated K182R, A183P ScMnSOD (enzyme, S. cerevisiae, UniProt P00447 27-233, looked up)
chain: B1 chain with K182R, A183P
modifications: all free amino groups of the lysine residues and the N-terminus methylated (reductive methylation, confirmed by mass spectrometry)
notes: Manganese superoxide dismutase of S. cerevisiae mitochondria (ScMnSOD) with K182R and A183P; The form that was crystallised; 0.71 Mn per monomer; theoretical mass of the methylated protein 23,589 Da; also called methylated RP-mutant ScMnSOD; source: S. cerevisiae sod2Δ strain (EG110), overexpressed, purified, then reductive methylation
With B3, the “stoichiometry N” value in data set [8] is 4.

Values taken from publication PMC3646814, “Tetramerization Reinforces the Dimer Interface of MnSOD” (PLoS ONE, 2013).
